Test results published in patent US20200093883A1 (published 2020).
Square brackets hold non-standard residues; d marks the D form. Ends that are not written are not given here.

B1: SEQ ID NO: 172 (peptide)
peptide: [dR]KKR[dR]QRR[dR]RP[dK]RP[dA]TLNL[dF]-NH2
modifications: N-terminus assumed
SMILES: CC(C)C[C@H](NC(=O)[C@H](CC(N)=O)NC(=O)[C@H](CC(C)C)NC(=O)[C@@H](NC(=O)[C@@H](C)NC(=O)[C@@H]1CCCN1C(=O)[C@H](CCCNC(=N)N)NC(=O)[C@@H](CCCCN)NC(=O)[C@@H]1CCCN1C(=O)[C@H](CCCNC(=N)N)NC(=O)[C@@H](CCCNC(=N)N)NC(=O)[C@H](CCCNC(=N)N)NC(=O)[C@H](CCCNC(=N)N)NC(=O)[C@H](CCC(N)=O)NC(=O)[C@@H](CCCNC(=N)N)NC(=O)[C@H](CCCNC(=N)N)NC(=O)[C@H](CCCCN)NC(=O)[C@H](CCCCN)NC(=O)[C@H](N)CCCNC(=N)N)[C@@H](C)O)C(=O)N[C@H](Cc1ccccc1)C(N)=O

Legend:
Experiment in all cases: AlphaScreen
hJNK3 = target: hJNK3
hJNK1 = target: hJNK1
hJNK2 = target: hJNK2

Binder	IC50 (hJNK3)	IC50 (hJNK1)	IC50 (hJNK2)
B1	102 nM	722 nM	54.7 nM
[dD][dQ][dS][dR][dP][dV][dQ][dP][dF][dL][dN][dL][dT][dT][dP][dR][dK][dP][dR][dP][dP][dR][dR][dR][dQ][dR][dR][dK][dK][dR]G [SEQ ID NO: 197]	1290 nM	24400 nM	802 nM
